Measured values taken from PMC10029098.

How the values were obtained:
[1] = target: PD1 (Homo sapiens), Q15116; assay: ELISA PD1/PDL1 blocking; conditions: modification not given
[2] = target: PD1 (Homo sapiens), Q15116; assay: competitive binding kinetics; conditions: modification not given

Chain of PD1 (Homo sapiens), Q15116 (Q15116 25-170): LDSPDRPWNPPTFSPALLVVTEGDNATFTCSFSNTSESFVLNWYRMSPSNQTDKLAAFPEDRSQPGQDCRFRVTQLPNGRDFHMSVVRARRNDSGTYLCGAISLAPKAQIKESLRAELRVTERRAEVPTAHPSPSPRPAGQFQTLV

| IC50 [1] [nM] | Ki [2] [nM] | Binder |
| --- | --- | --- |
| 3700 |  | RWCARRDYRFDMGFDYWGWE [peptide 1c] |
| 290 | 41 | RWVARRDYRFDMGFDYWVWE [hairpin 1e] |
